According to patent US20250215089A1 (HARBOUR BIOMED SHANGHAI, published 2025):

Assays:
human CD40 [1] = target: T1, human CD40 (human, UniProt P25942 21-277); experiment: cell-based or functional assay
human CD40 [2] = target: T1, human CD40; experiment: FACS, Raji cells
Description: (§1) The cells were incubated at 4° C. for 1 hours in the dark. After the incubation, the cells were rinsed twice by adding pre-chilled PBS at 100 μL/well, and centrifuged at 500 g at 4° C. for 5 minutes, and the supernatant was discarded. Then, a fluorescent secondary antibody (goat anti-human IgG (H+L) secondary antibody, Alexa Fluor® 488 conjugate, Invitrogen, #A11013, 1:1000 dilution) was added at 100 μL/well, and the cells were incubated at 4° C. for 30 minutes in the dark. The cells were washed twice with pre-chilled PBS at 200 μL/well, and centrifuged at 500 g at 4° C. for 5 minutes, and the supernatant was discarded. Finally, the cells were resuspended in pre-chilled PBS at 200 μL/well. The fluorescence signal values were read using a BD FACS CANTOII flow cytometer or ACEA NovoCyte flow cytometer, and the data were processed and analyzed using FlowJo v10 software (FlowJo, LLC).

human PD-L1 [3] = target: T2, human PD-L1 (human, UniProt Q9NZQ7 19-290); experiment: FACS, CHO-K1/hPD-L1 cells
T2 construct: whole, on cells; also called hPD-L1; CD274
Description: (§2) Specifically, the cells expressing PD-L1 were digested and resuspended in PBS buffer containing 2% BSA. The cells were adjusted to a cell density of 1×10⁶ cells/mL, respectively. The cells were seeded in a 96-well V-bottom plate (Corning, #3894) at 100 μL/well, and the antibody to be tested at 2×final concentration with 4-fold concentration gradient dilution was then added at 100 μL/well. The cells were incubated at 4° C. for 2 hours in the dark. After the incubation, the cells were rinsed twice by adding pre-chilled PBS containing 2% BSA at 100 μL/well, and centrifuged at 500 g at 4° C. for 5 minutes, and the supernatant was discarded. […] The cells were washed twice by adding pre-chilled PBS containing 2% BSA at 100 µL/well, and centrifuged at 500 g at 4° C. for 5 minutes, and the supernatant was discarded. Finally, the cells were resuspended in pre-chilled PBS buffer containing 2% BSA at 200 μL/well. The fluorescence signal values were read using a BD FACS CANTOII flow cytometer or ACEA NovoCyte flow cytometer, and the data were processed and analyzed using FlowJo v10 software (FlowJo, LLC).

human PD-L1 [4] = target: T2, human PD-L1; experiment: cell-based or functional assay
human PD-L1 [5] = target: T2, human PD-L1; experiment: FACS, NCI-H226 cells
Description: as §2

cynomolgus monkey CD40 = target: T3, cynomolgus monkey CD40 (cynomolgus monkey); experiment: FACS, CHO-K1/cyCD40 cells
T3 construct: whole, on cells; also called cyCD40
Description: as §1

cynomolgus monkey PD-L1 = target: T4, cynomolgus monkey PD-L1 (cynomolgus monkey); experiment: FACS, CHO-K1/cyPD-L1 cells
T4 construct: whole, on cells; also called cyPD-L1
Description: as §2

human CD40 [6] = target: T1, human CD40; experiment: FACS, CHO-K1/hCD40 cells
Description: as §1

T1 sequence (P25942 21-277): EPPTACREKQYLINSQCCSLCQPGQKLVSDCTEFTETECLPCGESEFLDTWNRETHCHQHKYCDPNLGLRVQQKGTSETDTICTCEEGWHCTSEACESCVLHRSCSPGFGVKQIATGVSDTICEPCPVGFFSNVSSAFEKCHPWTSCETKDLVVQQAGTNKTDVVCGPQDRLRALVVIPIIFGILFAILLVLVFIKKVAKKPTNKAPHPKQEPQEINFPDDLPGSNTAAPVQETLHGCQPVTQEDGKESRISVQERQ
T2 sequence (Q9NZQ7 19-290): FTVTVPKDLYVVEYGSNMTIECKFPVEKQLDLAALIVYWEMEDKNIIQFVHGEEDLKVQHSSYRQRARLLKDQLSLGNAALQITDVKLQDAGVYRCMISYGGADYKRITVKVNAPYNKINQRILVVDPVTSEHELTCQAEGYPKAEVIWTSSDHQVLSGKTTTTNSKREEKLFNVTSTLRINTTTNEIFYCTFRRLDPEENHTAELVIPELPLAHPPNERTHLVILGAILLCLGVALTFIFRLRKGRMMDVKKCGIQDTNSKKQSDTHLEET

B1: PR007151 (bispecific antibody, human IgG1, kappa)
heavy: QVQLVESGGGVVQPGMSLRLSCAASGFTFSSYGMYWVRQAPGKGQEWVASIRYTGTEKHYADSVKGRFTISRDNSKNTLYLEMNSLRVEDTAVYYCAKNRALFGVIPDDSDIRGQGTMVTVSSGGGGSQVQLVQSGAEVKKPGASVKVSCKASGYTFAGYYMYWVRQAPGQGLEWMGWINPDSGAPTYAQKFQGRVTMTRDTSISTAYMELSRLRSDDTAVYYCAREKIYYGSGNYYPSFDYWGQGTLVTVSSASTKGPSVFPLAPSSKSTSGGTAALGCLVKDYFPEPVTVSWNSGALTSGVHTFPAVLQSSGLYSLSSVVTVPSSSLGTQTYICNVNHKPSNTKVDKKVEPKSCDKTHTCPPCPAPEAAGAPSVFLFPPKPKDTLMISRTPEVTCVVVDVSHEDPEVKFNWYVDGVEVHNAKTKPREEQYNSTYRVVSVLTVLHQDWLNGKEYKCKVSNKALPAPIEKTISKAKGQPREPQVYTLPPSREEMTKNQVSLTCLVKGFYPSDIAVEWESNGQPENNYKTTPPVLDSDGSFFLYSKLTVDKSRWQQGNVFSCSVMHEALHNHYTQKSLSLSPGK
light: DIQLTQSPSFLSASVGDRVTITCRASQGISSYLAWYQQKPGKAPKLLIYAASTLQSGVPSRFSGSGSGTEFTLTISSLQPEDFATYYCQQLVSYPWTFGQGTKVEIKRTVAAPSVFIFPPSDEQLKSGTASVVCLLNNFYPREAKVQWKVDNALQSGNSQESVTEQDSKDSTYSLSSTLTLSKADYEKHKVYACEVTHQGLSSPVTKSFNRGEC
notes: VH of PR005878 (PD-L1) - GS_5 - heavy chain of CD40 IgG PR006504; human IgG1 L234A/L235A/G237A; also called PD-L1×CD40
Q: Which results are given for B1?
A: EC50, HEK293-hCD40-NFκB reporter, + CHO-K1 (human CD40 [1]): 0.425 nM; EC50, HEK293-hCD40-NFκB reporter, + CHO-K1/hPD-L1 (human CD40 [1]): 0.0362 nM; Maximum (RLU), HEK293-hCD40-NFκB reporter, + CHO-K1 (human CD40 [1]): 4000 RLU; Maximum (RLU), HEK293-hCD40-NFκB reporter, + CHO-K1/hPD-L1 (human CD40 [1]): 4900 RLU; EC50 (human CD40 [2]): 1.3 nM; Maximum MFI (human CD40 [2]): 6610 MFI; EC50 (human PD-L1 [3]): 1.14 nM; Maximum MFI (human PD-L1 [3]): 20700 MFI; EC50, Jurkat-NFAT-hPD1 reporter (human PD-L1 [4]): 0.35 nM; Maximum (RLU), Jurkat-NFAT-hPD1 reporter (human PD-L1 [4]): 4640 RLU; EC50 (human PD-L1 [5]): 0.215 nM; Maximum MFI (human PD-L1 [5]): 928 MFI; EC50 (cynomolgus monkey CD40): 3.76 nM; Maximum MFI (cynomolgus monkey CD40): 75400 MFI; EC50 (cynomolgus monkey PD-L1): 0.754 nM; Maximum MFI (cynomolgus monkey PD-L1): 4930 MFI; EC50 (human CD40 [6]): 2.36 nM; Maximum MFI (human CD40 [6]): 16000 MFI

B2: PR007269 (bispecific antibody, human IgG1, kappa)
heavy: QVQLVESGGGVVQPGMSLRLSCAASGFDFSSYGMYWVRQAPGKGQEWVASIRYTGTEKHYADSVKGRFTISRDNSKNTLYLEMNSLRVEDTAVYYCAKNRAIFGVIPDDSDIRGQGTMVTVSSGGGGSQVQLVQSGAEVKKPGASVKVSCKASGYTFAGYYMYWVRQAPGQGLEWMGWINPDSGAPTYAQKFQGRVTMTRDTSISTAYMELSRLRSDDTAVYYCAREKIYYGSGNYYPSFDYWGQGTLVTVSSASTKGPSVFPLAPSSKSTSGGTAALGCLVKDYFPEPVTVSWNSGALTSGVHTFPAVLQSSGLYSLSSVVTVPSSSLGTQTYICNVNHKPSNTKVDKKVEPKSCDKTHTCPPCPAPEAAGAPSVFLFPPKPKDTLMISRTPEVTCVVVDVSHEDPEVKFNWYVDGVEVHNAKTKPREEQYNSTYRVVSVLTVLHQDWLNGKEYKCKVSNKALPAPIEKTISKAKGQPREPQVYTLPPSREEMTKNQVSLTCLVKGFYPSDIAVEWESNGQPENNYKTTPPVLDSDGSFFLYSKLTVDKSRWQQGNVFSCSVMHEALHNHYTQKSLSLSPGK
light: DIQLTQSPSFLSASVGDRVTITCRASQGISSYLAWYQQKPGKAPKLLIYAASTLQSGVPSRFSGSGSGTEFTLTISSLQPEDFATYYCQQLNNYPWTFGQGTKVEIKRTVAAPSVFIFPPSDEQLKSGTASVVCLLNNFYPREAKVQWKVDNALQSGNSQESVTEQDSKDSTYSLSSTLTLSKADYEKHKVYACEVTHQGLSSPVTKSFNRGEC
notes: VH of PR006246 (PD-L1) - GS_5 - heavy chain of CD40 IgG PR006511; human IgG1 L234A/L235A/G237A; also called PD-L1×CD40
Q: What does the source list for B2?
A: EC50, HEK293-hCD40-NFκB reporter, + CHO-K1 (human CD40 [1]): 0.234 nM; EC50, HEK293-hCD40-NFκB reporter, + CHO-K1/hPD-L1 (human CD40 [1]): 0.0692 nM; Maximum (RLU), HEK293-hCD40-NFκB reporter, + CHO-K1 (human CD40 [1]): 189000 RLU; Maximum (RLU), HEK293-hCD40-NFκB reporter, + CHO-K1/hPD-L1 (human CD40 [1]): 271000 RLU; EC50 (human CD40 [2]): 1.46 nM; Maximum MFI (human CD40 [2]): 7570 MFI; EC50 (human PD-L1 [3]): 1.12 nM; Maximum MFI (human PD-L1 [3]): 19700 MFI; EC50, Jurkat-NFAT-hPD1 reporter (human PD-L1 [4]): 0.162 nM; Maximum (RLU), Jurkat-NFAT-hPD1 reporter (human PD-L1 [4]): 2910 RLU; EC50 (human PD-L1 [5]): 0.521 nM; Maximum MFI (human PD-L1 [5]): 869 MFI; EC50 (cynomolgus monkey CD40): 2.57 nM; Maximum MFI (cynomolgus monkey CD40): 53000 MFI; EC50 (cynomolgus monkey PD-L1): 0.714 nM; Maximum MFI (cynomolgus monkey PD-L1): 4670 MFI; EC50 (human CD40 [6]): 2.4 nM; Maximum MFI (human CD40 [6]): 16400 MFI

B3: PR007268 (bispecific antibody, human IgG1, kappa)
heavy: QVQLVESGGGVVQPGMSLRLSCAASGFDFSSYGMYWVRQAPGKGQEWVASIRYTGTEKHYADSVKGRFTISRDNSKNTLYLEMNSLRVEDTAVYYCAKNRAIFGVIPDDSDIRGQGTMVTVSSGGGGSQVQLVQSGAEVKKPGASVKVSCKASGYTFAGYYMYWVRQAPGQGLEWMGWINPDSGAPTYAQKFQGRVTMTRDTSISTAYMELSRLRSDDTAVYYCAREKIYYGSGNYYPSFDYWGQGTLVTVSSASTKGPSVFPLAPSSKSTSGGTAALGCLVKDYFPEPVTVSWNSGALTSGVHTFPAVLQSSGLYSLSSVVTVPSSSLGTQTYICNVNHKPSNTKVDKKVEPKSCDKTHTCPPCPAPEAAGAPSVFLFPPKPKDTLMISRTPEVTCVVVDVSHEDPEVKFNWYVDGVEVHNAKTKPREEQYNSTYRVVSVLTVLHQDWLNGKEYKCKVSNKALPAPIEKTISKAKGQPREPQVYTLPPSREEMTKNQVSLTCLVKGFYPSDIAVEWESNGQPENNYKTTPPVLDSDGSFFLYSKLTVDKSRWQQGNVFSCSVMHEALHNHYTQKSLSLSPGK
light: DIQLTQSPSFLSASVGDRVTITCRASQGISSYLAWYQQKPGKAPKLLIYAASTLQSGVPSRFSGSGSGTEFTLTISSLQPEDFATYYCQQLYSYPWTFGQGTKVEIKRTVAAPSVFIFPPSDEQLKSGTASVVCLLNNFYPREAKVQWKVDNALQSGNSQESVTEQDSKDSTYSLSSTLTLSKADYEKHKVYACEVTHQGLSSPVTKSFNRGEC
notes: VH of PR006246 (PD-L1) - GS_5 - heavy chain of CD40 IgG PR006497; human IgG1 L234A/L235A/G237A; also called PD-L1×CD40
Q: B3 was tested. Which “EC50, HEK293-hCD40-NFκB reporter, + CHO-K1” value (human CD40 [1]) did it give?
A: Its value is 0.266 nM.

Q: And the “EC50, HEK293-hCD40-NFκB reporter, + CHO-K1/hPD-L1” value (human CD40 [1])?
A: Its value is 0.0571 nM.

Q: What about the “Maximum (RLU), HEK293-hCD40-NFκB reporter, + CHO-K1” value (human CD40 [1]) of the same binder?
A: Its value is 156000 RLU.

Q: What about the “Maximum (RLU), HEK293-hCD40-NFκB reporter, + CHO-K1/hPD-L1” value (human CD40 [1]) of the same binder?
A: Its value is 286000 RLU.

Q: What about the EC50 (human CD40 [2]) of the same binder?
A: The EC50 was 1.38 nM.

Q: And the “Maximum MFI” value (human CD40 [2])?
A: The value was 7430 MFI.

Q: And the EC50 (human PD-L1 [3])?
A: The EC50 was 1.08 nM.

Q: What about the “Maximum MFI” value (human PD-L1 [3]) of the same binder?
A: Its value is 19600 MFI.

Q: And the “EC50, Jurkat-NFAT-hPD1 reporter” value (human PD-L1 [4])?
A: The value was 0.181 nM.

Q: What about the “Maximum (RLU), Jurkat-NFAT-hPD1 reporter” value (human PD-L1 [4]) of the same binder?
A: The value was 2810 RLU.

Q: What about the EC50 (human PD-L1 [5]) of the same binder?
A: The EC50 was 0.42 nM.

Q: And the “Maximum MFI” value (human PD-L1 [5])?
A: The value was 869 MFI.

Q: What about the EC50 (cynomolgus monkey CD40) of the same binder?
A: Its EC50 is 2.8 nM.

Q: What about the “Maximum MFI” value (cynomolgus monkey CD40) of the same binder?
A: Its value is 65700 MFI.

Q: And the EC50 (cynomolgus monkey PD-L1)?
A: Its EC50 is 0.68 nM.

Q: And the “Maximum MFI” value (cynomolgus monkey PD-L1)?
A: Its value is 4550 MFI.

Q: What about the EC50 (human CD40 [6]) of the same binder?
A: The EC50 was 1.65 nM.

Q: What about the “Maximum MFI” value (human CD40 [6]) of the same binder?
A: Its value is 16300 MFI.
